Experimental findings from publication PMC11971343, “Role of charges in a dynamic disordered complex between an IDP and a folded domain” (Nature Communications, 2025) are described below.

The chains are these.
B1: RST domain of the plant protein RCD1 (domain or fragment)
chain: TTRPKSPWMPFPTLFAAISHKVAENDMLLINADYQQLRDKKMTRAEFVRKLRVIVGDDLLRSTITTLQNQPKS
notes: folded RST domain of the plant protein RCD1, net charge +5; also called RCD1-RST; source: produced as previously described [16,34,52,78]
B2: H1-GD variant 6K1 (domain or fragment, human)
chain: DHPKYSDMIVAAIQAEKNRAGSSRQSIQQYIKSHYKVGENADSQIKLSIQRLVTTGVLQQTQGVGASGSFRLAK
notes: net charge +5; source: produced as previously described [16,34,52,78]
B3: H1-GD variant 6K2 (domain or fragment, human)
chain: B2 chain with K17Q, Q29K, Q59K, K74Q
notes: as for B2
B4: prothymosin α (ProTα), isoform 2 (natural protein, UniProt P06454-2 1-110, looked up)
chain: MSDAAVDTSSEITTKDLKEKKEVVEEAENGRDAPANGNANEENGEQEADNEVDEEEEEGGEEEEEEEEGDGEEEDGDEDEEAESATGKRAAEDDEDDDVDTKKQKTDEDD
notes: prothymosin α, isoform 2, used for NMR (unlabelled, 15N- or 13C,15N-labelled); BMRB 27215 holds its assignments; Isotope-labelled and unlabelled forms are treated as one molecule; also called 15N-ProTα; source: produced as previously described [16,34,52,78]

Positions count from the first letter of the chain named.

What all share (settings): both partners purified
In assay [1] the target is B4. As to the kind of experiment: NMR titration; 1H-15N HSQC of 15N-ProTα (28 μM) with GD up to 8x molar ratio, or 8x RST or CaM; 15N-ProTα (37 μM) with 2x full-length H1; 283 K, TBSK buffer (10 mM Tris, 155 mM KCl, 0.1 mM EDTA), pH 7.4.
Assay [2] concerns the target B4. Nature of the assay: NMR titration; 1H-15N HSQC of 15N-ProTα (50 μM) with 4x molar ratio of GD-WT or a GD variant; sum of CSPs normalised to that with GD-WT at the same ratio and batch; 283 K, TBSK buffer, pH 7.4.
Assay [3] deals with T1, wild-type human histone H1.0, full length (produced recombinantly, for NMR) (human, UniProt P07305 1-194).
T1 construct: human linker histone H1.0, wild type, full length; also called full-length H1; linker histone H1.0; source: produced recombinantly [16]
As to the kind of experiment: NMR titration; 1H-15N HSQC of 15N-ProTα (28 μM) with GD up to 8x molar ratio, or 8x RST or CaM; 15N-ProTα (37 μM) with 2x full-length H1; 283 K, TBSK buffer (10 mM Tris, 155 mM KCl, 0.1 mM EDTA), pH 7.4.

T1 sequence (P07305 whole entry): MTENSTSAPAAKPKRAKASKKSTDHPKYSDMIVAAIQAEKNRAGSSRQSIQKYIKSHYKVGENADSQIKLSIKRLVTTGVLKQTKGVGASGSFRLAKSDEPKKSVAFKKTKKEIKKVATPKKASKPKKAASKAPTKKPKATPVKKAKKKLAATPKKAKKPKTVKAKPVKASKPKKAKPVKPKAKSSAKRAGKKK

For the molecule B1, the binding result in assay [1] is recorded as “binds”. Turning to B2, the “Relative CSPsum” value in assay [2] turned out to be 0.11. The same measure, in the same setting: for B3 the value was 0.13. On to B4, for which the binding result in assay [3] is “binds”.
